In the DeepSol protein solubility set:

Experiment: soluble on expression in E. coli; label from the status in PepcDB or PDB records

Sequence	soluble on expression in E. coli
MAGDPMRTYENKEELKAEIEKTFEKYILEFDNIPENLKDKRADEVDRTPAENLAYQVGWTNLVLKWEEDERKGLQVKTPSDKFKWNQLGELYQWFTDTYAHLSLQELKAKLNENINSISAMIDSLSEEELFEPHMRKWADEATKTATWEVYKFIHVNTVAPFGTFRTKIRKWKKIVLLEHHHHHH	soluble
MAGDPMVLKRIRDMFVASVHEGLDKMENPKVMLNQYVRDMESDIAKAKQTIVKQHTIAYQFKKKYEEAAEVAGKRKNQAQLAFDAGEEELAKKALTEMKYLEGKAAEHKASYEQANSQLADLKEQLAALETKLQDVKDKKQALIARANAAKAKEHMNTTFDKIDSESAYREFLRIENRIEEMEIRANYSKSAEAGTELTRKEFADDVEAEIEKMRTLSLQKSDQTKAANELEHHHHHH	soluble
MAGLTRALVARHALGRAEAYDAALLDVAQDHLLYLLSQTVQFGDNRLVFKGGTSLRKCRLGNVGRFSTDLDFSAPDDEVVLEVCELIDGARVGGFEFGVQSTRGDGRHWQLRVRHTELGEPRIVASVEFARRPLALPSELLAFIQLPIHKAYGFGLPTLPVVAEAEACAEKLARYRRVALARDLYDLNHFASRTIDEPLVRRLWVLKVWGDVVDDRRGTRPLRVEDVLAARSEHDFQPDSIGVLTRPVAMAAWEARVRKRFAFLTDLDADEQRWAACDERHRREVENALAVLRS	soluble
MAGSGVAKQIFALDFEIFGRVQGVFFRKHTSHEAKRLGVRGWCMNTRDGTVKGQLEAPMMNLMEMKHWLENNRIPNAKVSKAEFSQIQEIEDYTFTSFDIKH	soluble
MAGWRTVVVNTHSKLSYKNNHLIFKDAYKTELIHLSEIDILLLETTDIVLSTMLVKRLVDENVLVIFCDDKRLPTAMLMPFYGRHDSSLQLGKQMSWSETVKSQVWTTIIAQKILNQSCYLGACSYFEKSQSIMDLYHGLENFDPSNREGHAARIYFNTLFGNDFSRDLEHPINAGLDYGYTLLLSMFAREVVVSGCMTQFGLKHANQFNQFNFASDIMEPFRPLVDKIVYENRNQPFPKIKRELFTLFSDTFSYNGKEMYLTNIISDYTKKVVKALNNEGKGVPEFRI	not soluble
MAHHHHHHMAALQHVNSATEITPLLACGGDYVKNGTQTLSIPSVYATLDALESLWQAQREKQHLSVRGRAQGLRHYHAVYEASARCVPLSLTRWEQWLAGLSEQGARSTVGACPDELSSSSSPHVQRVQKELVDSYWHLYRRLCWGSSGAAKAGLAAVLEHTDSAASGLPSVMATGAASLLAKQEAALAKPLQAFARLSADRHTCSPITR	not soluble
MAHHHHHHMAASANGSTKGSETDLPIGKDGTTLHLKCKSDELADRIIFVGDPGRVDVISGYFDKDSIRASRDHREIRFATGTYKGTPVTVISTGMGVDNIEIVLNEIHALKEYDMERGQWRHRKGDADAPSAGPFFDPSTMKIIRLGTCGSPAESVPPLALAVTRHAIGMDNTSLYYSAGTRETSKDQQEIRRIVREQTGLRAIDIYTSMAHPNITKSICAACDAHNAATGSEADKQQYVIGTTATASGFYGCQGRRVGRFMKHLTVPNMVEELGSLKFNLSNGVEVVTNIEMETSAICYLSDMLGYQAGAACVVVSKRVGEKKMFLGDQLDAAMKRCIKIILEALVSA	soluble
MAHHHHHHMADVSADSDAQVELERLNDVIDKYTCQVEHIDNLLQELEEENNSDSVSRQIAEYQSALESHPENIPAEDALEVITRLENTLKIVQRRNHLLEKENGTQNRLLEERSNVLLNATKTFDHIVDVTGWHDKFLFDAEDLRSKVADIREMSNIEAVVQKELRVAQGIIKKKEAALRQLEELVEQGKEQEAVLNNVYNDIRVKERDCSEVEMQLVRLRKSVAKTDEALAVFDLHNQNASLAYMESDRDYLRDSVAEMKSTTRRQDNVIKAQLTRQQQLQTRLDVIMKSLREMKLDKKYERNIPKSALVPSASREEPEDVSKILPESECIPVPTYRLLHKNNEMLRVIVMRKNMLVLEKNAVIEALEAGLAKYGSALITTYKEQQDLRQNKDMELIELMDDLQQQHSNYLEKLEELRLQNAALKKKMYRSTRQHAPLKGTRPMR	not soluble
MAHHHHHHMAERKVLNKYIPPDFDPDKLMESKKLLKKIEKRKNRNQNKTKKKLMNIRMMYPFTLKCNKCKTFTYVGTKFNSRVEKLKDETYLNIPIWKFYGKCQECKNEIIFKTDPKNGDYLLIAGGTRTYDAHKEQELADDYYRNSNVKDEDKIKNTEKQSYNAMLELKMNEQLEELQNMNKRHLDKFSSINKALNRLYEKSELENKENNFFMNNLDSEDEKAFFSLLNKSRSSKDHIGDNLNKYNPSNNNWVNKNIEKDNIIIEEVELDDNKNNNDEVNEYISEGEGEHSDGNNINEVNESFSDLLLKKKKNRYEKENTVKIKQGNIDTEDKPKDNQQDKTNNISFKNTISNNSSSFSNIIHKPMFNKINKETNFNFVIKKKENFQSLLSEYNSDNSNESDN	not soluble
MAHHHHHHMAFTDAVAGKTSLPPPVAIIVGHNIDASAMPLTYERNRLVIDMLQHYACPVFSHKKSGDAMNTVSSDVFEWVLEPLPVVGVEDMTAFHDRAYLNYLSIREALSEVDERASTVKRSRAEGIQPPVSRRSSAQNQPPLRVLPDLVPIPTDEEYGLVNENMPFVGMWRTIQATVSGTLLAARLLAQPGRFAAIHWFGGRHHAKQSTAGGFCFANDVVLGVLELKKLLSSDKKGILVVDVDAHHGDGTQSAFLHDNSVLTLSMHAHGVGIFPGSGGIEEIGAGLGRGFTMNVPLPEGATDILAVTLMYRSIHFAFKKLGEGLAAIVIVCGSDALSGDPLGALNLTVGGMQSIIRLLLKEAARRSLKVLLLGGGGYVDTSCARLAGVVTKDVLSCAAAMRLGKTEYFGDSANLGDNLGVAVPEGCEYFTRYGPSFLMHGLPPARVSKLYRLPYGSPLFMRMQRAATKEALRRRRNQEQDEEEEEEEEEEEEEEEEEEEEEEEEEVEEEEGEGEEEA	not soluble
MAHHHHHHMAILYNRITGLKDSVYGEGLQCRILGLDEIKVFNIRIRPRVLKTMTGTKDLQMVNISLRVLFRPQTDRLPQIYREFGMDYDERILPSISNEILKAVVAEYKAEELIQKRDVVSARIYQLMQSKVSQFGLVLEDLSLVDIQFGKEFMVAVEQKQVAQQEAERFRYVVLENEQKRRAAVVRAEGEAESARLISEAIQRSGGGLLELRRIEAAVDIASKLIPMRNVTFLPGGSNMLLHMKSHQASEQAH	not soluble
MAHHHHHHMAKRKYMSKVDGKINVGEKHQAKIPDLVTDENEKTNVEETQPVENVNNVNDDVRKNKKAKTEQVEETTNNAAEEQVQQEEPVETAPAHEEPAHGEEAQGEEVQGEEAQGEEVQGEEVQGEEAHEEPANDEPANDEPANDEPANEEPANEEPANEEPANEEPANEEPANEEPANEEPANE	not soluble
MAHHHHHHMALTQSSGEPLRSMQGGVGGVSYADGAGQAPEHINRASATPVLTEEAVQSSIETFEDAACVREEAVRSYAEFHNNVESLHATMHTQLRPVWRTAMQLRPEILSDVRDEWCLRRRDNIPDGIPIPAAAAQHIALQETILSEVEDMLQVLRNTSVRFAAHFLSDEEKISMGANPAYLRAPDIDKEVVVSRSQSTSTSPQRALPASVMSVSSSAGAVASAPIKPSASSAATAAVHTPREGHSRHHQGSYVQHHHHHSDDEAGLVSSSSNRHVCSGKSSCGSRSAGEDPLLEELRKQYQLRIRELKAQSEAGASRRSEHGASQSAAAPPPRRGNRARVAASRSLSLPSWASSASASVLTSSSSTVSRR	soluble
MAHHHHHHMALYIIGLGLGDERDVSVKGKELIEMSDVVYLESYTSVLFVSKNTLEEFYKKNIKEVDRNLAEENCEEILKEAINKKVSFLVVGDPLCATTHHDIILRAKKKNINVQVIHNASVMSAIGESGMQLYNFGQTVSIPYFEGNYKPTSFYDKIKVNLDNNFHTLCLLDIKVKERTIENMMKNKNIYEPSRFMTVNEAIEQLLYCEEVLKKNVITDNTRGIAIVRIGSDSQQIVSGSLLALKSVSYNDPLHSLIICAPTLHDVEREYFEMYQHRC	soluble
MAHHHHHHMAPMSSSGIRGLSLRSVRETVHCATTQTTSAPPPPANCQQHQLLNTTEDKCNAIFAEVELLSKWLQHAVESRAHVEREAYALLQQADVKIQHLEDTVRQKEMELLYMRGAMESLRTRVEFYECRERRIEGDDDDANFPLRREADFKGAAVRKVVIMGENNTNDSYCSNRMGRGNGVMSPADFTVDSTEQLNAGKCVDLGTTATTCNSNGVDNASVSSPAETGVGGRSRVGHSALSWVRYLLERCVSNSGKDGASEGAASMKKKGEGNDQLADALTMLTTLQCQYADPNGDLVMMNSLCTKFSNSIVAVAEELNTALQIPLKRASNTTDSLQISQAAKVVEHPESAAEALPSSNQEPIMQCRKSVVEENLQLLQSLMAVESSSREAWSTLQKY	not soluble
MAHHHHHHMASTGNGGDSKAAASSLSPQKAGMVAPLTSAPPLTASTTSPSRLNSMRTANASASSKNNAPTGPSKKGGTAVKPSPEVGGKAAAGSSEPEPRASVNIDRQSKPNANSVNASNVADSTNAPSGKRPDHGRRGRRQECSSWFDAEKPAKADRPADKELNQNVQIVQDDIPDAEQAHREQAERAQRQKEKLARHISESPTGFQATLPRLNELDVTNSWDKLLRMMRSEFDMSCLTSCLARELDEDVAWNPEMLLVQLTSDMLDAAELQKDGGEAYVPVDASDIGQMTGGEVARRRKEKRSTTTAGGAAPAAGAAGGTEREPEKGSEKPAAASPTPAFQAAASKALRKQTTTDPAAAAPSSKKARDTDNAASTSTANSSSTRKRSAAGSRSGEASGGGGNNTNASSSTAKGDSADDTKSSKSTSLKAQVSKLFSK	not soluble
MAHHHHHHMATAADYVGKNCPYCGAIDSIETDEARGEAACVNCATVVAMGLEENVATRFEKDATYADVDRGGNVGWDPENGGAIGRATARNAGLTREEAAAAAAGLLRHPNAAASVTSAGPFGDTAKYAKTRLHPRMSAQLEVFFRLSRRHDEAILRDAIALAKHFVGFRRERGMRVEHQTEVAAASVMLAAEHLGQPIPLSEMRVLDGTLKDVESRRQEILDATNLGEEMAQMTKQYAPNLIHYYVRLLQLPLICYEMPCLALFRAIRQCESKPDPGASELAVFVEAEKVVMAVLLARTESRLQWPNKPPPPADPSAEPSRAILYSSFASRAHLQPARVEKLMRVAERSVPLIQPEFERLMQTPEFAVAAVHTMGEAVVSMTAKTEDTKSYAPVKSDPIPTSAPSAPNIARGNRKRSRSRSTTPQVPPSSASQER	not soluble
MAHHHHHHMATTSSPAASETAVRTVWFDAIDATAAMISTDPLQPAAEYTADSYLPPLSLAGDQADFFAQLRELDRGFIEAAPSLFLPQMTLEEACHAKPSFYQTFLGEREITETTFQPLLLKQRDEAEQEADGSAMNGRHGARRRRQEAPVLPRGTAPLYGGFLGQEAMSPSTAVQRKPDFMPIILVPSAATAPLQLMNIKQFLEHGAYVDPATLYVDRETGVVNIRDSKPRSVIVKPGSFHDPHKYHVAFRQFRVVDDQDEVDDWSHVCGCIVEGKLWQLKGWYPHEQPQSRDPSRLFSRIRAFLAYFEEDKVPPQCREWNVQSLALTRNLLKDQVHIALASKFWEQLYTFLDEHPMFSRYTIPLTDERL	soluble
MAHHHHHHMAVASKGRIADVNQEELTKIGPKIDDVLSICLASFDSLRDMAFKFQYEQAAEKAAYQSGETKPDPMTQLMHVLQRMVDLTLGTAKAVYDQTLLEWRRRKGEGDADSPASQLASSQSMTSPEVLRNSSVEDFAAGSVAWIERGSHLSLLSLEVLSSVLLAHHYLRRDLQKYMLDVNVLDYLEKVFSMERDHELCYFPEGFKTECMRLIANLTHNNVDVNAALVERDTFLFNILSATQIDEENPGMVEWAEFALRNICESSAAAREKIRKLAPQGVTDQSREILAGRCSYSFSSTGKVQLHTQKPPLH	soluble
